Assay results reported in patent US20090291885A1.
Where two headings read alike, the source gives them in different places. Ends that are not written are not given here.

Key:
Assay in all cases: cell-based or functional assay
[1] = molecular target: human Kv1.1 channel (human) (UniProt Q09470)
[2] = molecular target: human Kv1.3 channel (human) (UniProt P22001)
[3] = molecular target: human Kv1.3 voltage-gated potassium channel (human) (UniProt P22001)
[4] = molecular target: human Kv1.3 channel (human) (UniProt P22001); remark: listed apart in the source

Sequence of human Kv1.3 channel (human) (P22001 whole entry): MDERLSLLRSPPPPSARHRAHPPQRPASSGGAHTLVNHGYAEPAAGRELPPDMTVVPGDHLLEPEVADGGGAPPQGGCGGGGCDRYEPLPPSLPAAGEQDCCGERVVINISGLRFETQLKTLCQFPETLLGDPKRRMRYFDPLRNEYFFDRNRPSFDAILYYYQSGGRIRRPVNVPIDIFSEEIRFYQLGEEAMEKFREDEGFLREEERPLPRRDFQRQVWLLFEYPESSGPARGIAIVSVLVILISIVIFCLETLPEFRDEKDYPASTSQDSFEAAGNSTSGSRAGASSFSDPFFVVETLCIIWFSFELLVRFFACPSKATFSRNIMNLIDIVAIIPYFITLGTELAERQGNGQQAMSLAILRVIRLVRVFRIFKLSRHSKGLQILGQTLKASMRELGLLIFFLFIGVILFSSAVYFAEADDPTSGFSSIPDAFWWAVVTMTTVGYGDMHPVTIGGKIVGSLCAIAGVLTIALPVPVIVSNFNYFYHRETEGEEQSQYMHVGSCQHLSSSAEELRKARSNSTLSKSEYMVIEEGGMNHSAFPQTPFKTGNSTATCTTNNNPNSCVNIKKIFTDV
Sequence of human Kv1.3 voltage-gated potassium channel (human) (P22001 whole entry): as above
Sequence of human Kv1.1 channel (human) (Q09470 whole entry): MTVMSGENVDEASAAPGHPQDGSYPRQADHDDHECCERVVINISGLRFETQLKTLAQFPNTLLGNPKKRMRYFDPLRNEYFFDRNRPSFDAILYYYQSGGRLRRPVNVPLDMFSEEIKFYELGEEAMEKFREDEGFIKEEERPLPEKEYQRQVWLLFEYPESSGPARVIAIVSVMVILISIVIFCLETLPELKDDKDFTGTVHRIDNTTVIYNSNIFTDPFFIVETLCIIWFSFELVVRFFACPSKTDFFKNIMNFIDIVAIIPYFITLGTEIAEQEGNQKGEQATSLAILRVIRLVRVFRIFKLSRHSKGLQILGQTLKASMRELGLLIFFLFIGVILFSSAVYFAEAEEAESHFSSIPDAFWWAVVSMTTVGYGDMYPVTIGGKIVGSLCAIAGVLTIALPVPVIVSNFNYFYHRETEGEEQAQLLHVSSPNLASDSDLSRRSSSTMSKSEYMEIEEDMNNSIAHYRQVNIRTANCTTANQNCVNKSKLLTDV

Molecule Synthetic OSK1 (peptide) has a hKv1.1: IC50 [pM] [1] of 160 pM, a hKv1.1/hKv1.3 (selectivity ratio of the IC50s) [2] of 4 fold and a hKv1.3: IC50 [pM] [2] of 39 pM.

With Fc-L25-ShK[2-35] (Fc fusion) the IC50, whole cell patch clamp electrophysiology on HEK293/Kv1.3 cells [2] was 150 pM.

GGGGS-Osk1 (peptide) was tested, and the WB/IFNg IC50 [2] was 2.2 nM and the WB/IL-2 IC50 [2] was 1.36 nM.

“E. coli-derived Fc-L-ShK[2-35] (Fc fusion)” showed a Kv1.3 IC50 by IWQ [2] of 2.8 nM and a Kv1.3 IC50 by WCVC [2] of 1.3 nM.

For “E. coli-derived Fc-L-ShK[1-35] (Fc fusion)”, the Kv1.3 IC50 by WCVC [2] was 1.4 nM.

“E. coli-derived ShK[2-35]-L-Fc (Fc fusion)” gave a Kv1.3 IC50 by IWQ [2] of 4.9 nM.

For OSK1 (wild-type) (peptide), the Kv1.1 IC50, whole cell patch clamp [1] was 0.202 nM, the Kv1.3 IC50, whole cell patch clamp [2] was 0.039 nM and the Kv1.3 Selectivity (= Kv1.1/Kv.3 IC50) [2] was 5 fold.

In the case of Fc-L10-OSK1 (Fc fusion), the fold loss of potency in Kv1.3 current block against synthetic OSK1 [2] is reported as 5 fold.

In the case of 20k PEG-ShK (peptide), the WB/IFNg (IC50, nM) [3] is reported as 0.065 nM and the WB/IL-2 (IC50, nM) [3] is reported as 0.046 nM.

With “E. coli-derived Shk[1-35]-L-Fc (Fc fusion)” the Kv1.3 IC50 by IWQ [2] was 2.4 nM.

Work on PEG-OSK1 (peptide) yielded a peak IC50, whole cell patch clamp on HEK293 cells stably expressing human Kv1.3 [2] of 1.28 nM.

E. coli-derived Fc-L-OSK1 (Fc fusion) was tested, and the Kv1.3 IC50 by WCVC [2] was 3.2 nM.

In the case of RSCIDTIPKSRCTAFQCKHSMKYRLSFCRKTCGTC (not fully specified; ends and bridges not checked) [20K PEG-ShK[1-35]], the peak IC50, whole cell patch clamp on HEK293 cells stably expressing human Kv1.3 [4] is reported as 0.169 nM.
